Experimental data from patent publication EP4745153A1, “GLP-1, GIP AND GCG RECEPTOR […] USE THEREOF” (Jiangsu Hengrui Pharmaceuticals Co., Ltd., priority 2023, dated 2025).
Read-outs that look alike come from different tables or passages of the source. Starred links: 1 amine or outer side, 2 acyl side, 3 side chain; linkers in the order of their positions; H or OH if unused. Non-standard residues stand in square brackets, D forms with d. Groups on a side chain read outwards from the residue. No end group written: not given here. *: point of attachment. C20 diacid = O=C(O)CCCCCCCCCCCCCCCCCCC(=O)*; γGlu = O=C(O)[C@H](CCC(=O)[*:2])N[*:1]; αMeL = CC(C)C[C@](C)(N)C(=O)O; αMeK = C[C@](N)(CCCCN)C(=O)O; Iva = CC[C@](C)(N)C(=O)O; Ac4c = NC1(C(=O)O)CCC1; AEEA = NCCOCCOCC(=O)O; Aib = CC(C)(N)C(=O)O

Key:
Assay in all cases: cell-based or functional assay
[1] = target: T1, human glucagon-like peptide-1 receptor (human, UniProt P43220 24-463)
[2] = target: T2, human glucose-dependent insulinotropic polypeptide receptor (human, UniProt P48546 22-466)
T2 sequence (looked up): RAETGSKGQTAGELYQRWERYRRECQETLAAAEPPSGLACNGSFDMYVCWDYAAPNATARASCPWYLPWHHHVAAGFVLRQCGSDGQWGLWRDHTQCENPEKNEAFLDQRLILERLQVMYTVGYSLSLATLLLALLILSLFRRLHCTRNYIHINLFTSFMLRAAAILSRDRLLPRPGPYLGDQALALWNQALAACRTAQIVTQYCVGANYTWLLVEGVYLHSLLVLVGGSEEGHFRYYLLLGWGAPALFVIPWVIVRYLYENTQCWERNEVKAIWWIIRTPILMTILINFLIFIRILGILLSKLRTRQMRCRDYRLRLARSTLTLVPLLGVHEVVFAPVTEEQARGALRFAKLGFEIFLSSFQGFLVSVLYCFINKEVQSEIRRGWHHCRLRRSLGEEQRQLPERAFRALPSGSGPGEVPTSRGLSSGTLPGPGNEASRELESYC

human glucagon receptor [3] = target: T3, human glucagon receptor (human, UniProt P47871 26-477)
T3 sequence (P47871 26-477): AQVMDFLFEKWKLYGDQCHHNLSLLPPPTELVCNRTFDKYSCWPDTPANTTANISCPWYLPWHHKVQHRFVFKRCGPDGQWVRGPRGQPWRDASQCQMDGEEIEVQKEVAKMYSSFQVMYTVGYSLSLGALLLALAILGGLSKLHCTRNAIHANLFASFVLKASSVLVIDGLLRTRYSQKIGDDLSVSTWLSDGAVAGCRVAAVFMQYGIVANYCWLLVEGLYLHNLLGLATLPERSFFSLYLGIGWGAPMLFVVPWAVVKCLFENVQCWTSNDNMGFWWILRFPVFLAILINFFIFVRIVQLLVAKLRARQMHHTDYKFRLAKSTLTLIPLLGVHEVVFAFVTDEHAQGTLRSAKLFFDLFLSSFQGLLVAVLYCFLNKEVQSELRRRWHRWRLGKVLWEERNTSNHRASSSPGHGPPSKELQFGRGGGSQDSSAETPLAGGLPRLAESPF

[4] = target: T1, human glucagon-like peptide-1 receptor; remark: listed apart in the source
[5] = target: T2, human glucose-dependent insulinotropic …; remark: listed apart in the source
[6] = target: T1, human glucagon-like peptide-1 receptor; remark: listed apart in the source
human glucagon receptor [7] = target: T3, human glucagon receptor; remark: listed apart in the source
[8] = target: T2, human glucose-dependent insulinotropic …; remark: listed apart in the source
human glucagon receptor [9] = target: T3, human glucagon receptor; remark: listed apart in the source
[10] = target: T2, human glucose-dependent insulinotropic …; remark: listed apart in the source
human glucagon receptor [11] = target: T3, human glucagon receptor; remark: listed apart in the source
[12] = target: T2, human glucose-dependent insulinotropic …; remark: listed apart in the source
human glucagon receptor [13] = target: T3, human glucagon receptor; remark: listed apart in the source

B1: Compound No. 0150 (peptide)
peptide: H[Aib]HGTFTSDYSILLEK([AEEA-AEEA-γGlu-C20 diacid])QAA[Ac4c]EFVEWLLA[dE]GPSSGAPPPS-NH2
modifications: N-terminus assumed
SMILES: CC[C@H](C)[C@H](NC(=O)[C@H](CO)NC(=O)[C@H](Cc1ccc(O)cc1)NC(=O)[C@H](CC(=O)O)NC(=O)[C@H](CO)NC(=O)[C@@H](NC(=O)[C@H](Cc1ccccc1)NC(=O)[C@@H](NC(=O)CNC(=O)[C@H](Cc1c[nH]cn1)NC(=O)C(C)(C)NC(=O)[C@@H](N)Cc1c[nH]cn1)[C@@H](C)O)[C@@H](C)O)C(=O)N[C@@H](CC(C)C)C(=O)N[C@@H](CC(C)C)C(=O)N[C@@H](CCC(=O)O)C(=O)N[C@@H](CCCCNC(=O)COCCOCCNC(=O)COCCOCCNC(=O)CC[C@H](NC(=O)CCCCCCCCCCCCCCCCCCC(=O)O)C(=O)O)C(=O)N[C@@H](CCC(N)=O)C(=O)N[C@@H](C)C(=O)N[C@@H](C)C(=O)NC1(C(=O)N[C@@H](CCC(=O)O)C(=O)N[C@@H](Cc2ccccc2)C(=O)N[C@H](C(=O)N[C@@H](CCC(=O)O)C(=O)N[C@@H](Cc2c[nH]c3ccccc23)C(=O)N[C@@H](CC(C)C)C(=O)N[C@@H](CC(C)C)C(=O)N[C@@H](C)C(=O)N[C@H](CCC(=O)O)C(=O)NCC(=O)N2CCC[C@H]2C(=O)N[C@@H](CO)C(=O)N[C@@H](CO)C(=O)NCC(=O)N[C@@H](C)C(=O)N2CCC[C@H]2C(=O)N2CCC[C@H]2C(=O)N2CCC[C@H]2C(=O)N[C@@H](CO)C(N)=O)C(C)C)CCC1
[1]
  Activity against human GLP-1R (EC50 nM): 0.076 nM
[2]
  Activity against human GIPR (EC50 nM): 0.002 nM
Human glucagon receptor [3]
  Activity against human GCGR (EC50 nM): 0.076 nM

## H[Aib]HGTFTSDYS[αMeK]LLEK([AEEA-AEEA-γGlu-C20 diacid])QAA[Iva]EFVEWLLAGGPSSGAPPPS-NH2 [Compound No. 0128]
[4]
  Activity against human GLP-1R (EC50 nM): 0.04 nM
[5]
  Activity against human GIPR (EC50 nM): 0.0005 nM

## H[Aib]HGTFTSDYSK[Aib]LEK([AEEA-AEEA-γGlu-C20 diacid])KAAQEFVEWLLAGGPSSGAPPPS-NH2 [Compound No. 0107]
[6]
  Activity against human GLP-1R (EC50 nM): 0.016 nM
Human glucagon receptor [7]
  Activity against human GCGR (EC50 nM): 0.274 nM

B2: Compound No. 0111 (peptide)
peptide: H[Aib]HGTFTSDYS[αMeK]YLEK([AEEA-AEEA-γGlu-C20 diacid])KAAQEFVEWLIAGGPSSGAPPPS-NH2
modifications: N-terminus assumed
SMILES: CC[C@H](C)[C@H](NC(=O)[C@H](CC(C)C)NC(=O)[C@H](Cc1c[nH]c2ccccc12)NC(=O)[C@H](CCC(=O)O)NC(=O)[C@@H](NC(=O)[C@H](Cc1ccccc1)NC(=O)[C@H](CCC(=O)O)NC(=O)[C@H](CCC(N)=O)NC(=O)[C@H](C)NC(=O)[C@H](C)NC(=O)[C@H](CCCCN)NC(=O)[C@H](CCCCNC(=O)COCCOCCNC(=O)COCCOCCNC(=O)CC[C@H](NC(=O)CCCCCCCCCCCCCCCCCCC(=O)O)C(=O)O)NC(=O)[C@H](CCC(=O)O)NC(=O)[C@H](CC(C)C)NC(=O)[C@H](Cc1ccc(O)cc1)NC(=O)[C@](C)(CCCCN)NC(=O)[C@H](CO)NC(=O)[C@H](Cc1ccc(O)cc1)NC(=O)[C@H](CC(=O)O)NC(=O)[C@H](CO)NC(=O)[C@@H](NC(=O)[C@H](Cc1ccccc1)NC(=O)[C@@H](NC(=O)CNC(=O)[C@H](Cc1c[nH]cn1)NC(=O)C(C)(C)NC(=O)[C@@H](N)Cc1c[nH]cn1)[C@@H](C)O)[C@@H](C)O)C(C)C)C(=O)N[C@@H](C)C(=O)NCC(=O)NCC(=O)N1CCC[C@H]1C(=O)N[C@@H](CO)C(=O)N[C@@H](CO)C(=O)NCC(=O)N[C@@H](C)C(=O)N1CCC[C@H]1C(=O)N1CCC[C@H]1C(=O)N1CCC[C@H]1C(=O)N[C@@H](CO)C(N)=O
[8]
  Activity against human GIPR (EC50 nM): 0.024 nM
Human glucagon receptor [9]
  Activity against human GCGR (EC50 nM): 0.552 nM

## H[Aib]HGTFTSDLSILLEK([AEEA-AEEA-γGlu-C20 diacid])KAA[Iva]EFVEWLLAGGPSSGAPPPS-NH2 [Compound No. 0136]
[10]
  Activity against human GIPR (EC50 nM): 0.001 nM
Human glucagon receptor [11]
  Activity against human GCGR (EC50 nM): 0.039 nM

B3: Compound No. 0151 (peptide)
peptide: H[Aib]HGTFTSDYSILLEK([AEEA-AEEA-γGlu-C20 diacid])KAAQEFVEWLLA[dE]GPSSGAPPPS-NH2
modifications: N-terminus assumed
SMILES: CC[C@H](C)[C@H](NC(=O)[C@H](CO)NC(=O)[C@H](Cc1ccc(O)cc1)NC(=O)[C@H](CC(=O)O)NC(=O)[C@H](CO)NC(=O)[C@@H](NC(=O)[C@H](Cc1ccccc1)NC(=O)[C@@H](NC(=O)CNC(=O)[C@H](Cc1c[nH]cn1)NC(=O)C(C)(C)NC(=O)[C@@H](N)Cc1c[nH]cn1)[C@@H](C)O)[C@@H](C)O)C(=O)N[C@@H](CC(C)C)C(=O)N[C@@H](CC(C)C)C(=O)N[C@@H](CCC(=O)O)C(=O)N[C@@H](CCCCNC(=O)COCCOCCNC(=O)COCCOCCNC(=O)CC[C@H](NC(=O)CCCCCCCCCCCCCCCCCCC(=O)O)C(=O)O)C(=O)N[C@@H](CCCCN)C(=O)N[C@@H](C)C(=O)N[C@@H](C)C(=O)N[C@@H](CCC(N)=O)C(=O)N[C@@H](CCC(=O)O)C(=O)N[C@@H](Cc1ccccc1)C(=O)N[C@H](C(=O)N[C@@H](CCC(=O)O)C(=O)N[C@@H](Cc1c[nH]c2ccccc12)C(=O)N[C@@H](CC(C)C)C(=O)N[C@@H](CC(C)C)C(=O)N[C@@H](C)C(=O)N[C@H](CCC(=O)O)C(=O)NCC(=O)N1CCC[C@H]1C(=O)N[C@@H](CO)C(=O)N[C@@H](CO)C(=O)NCC(=O)N[C@@H](C)C(=O)N1CCC[C@H]1C(=O)N1CCC[C@H]1C(=O)N1CCC[C@H]1C(=O)N[C@@H](CO)C(N)=O)C(C)C
[1]
  Activity against human GLP-1R (EC50 nM): 0.037 nM
[2]
  Activity against human GIPR (EC50 nM): 0.004 nM
Human glucagon receptor [3]
  Activity against human GCGR (EC50 nM): 0.055 nM

## H[Aib]QGTFTSDYSI[αMeL]LEK([AEEA-AEEA-γGlu-C20 diacid])KAA[Aib]EFVEWLLAGGPSSGAPPPS-NH2 [Compound No. 0157]
[12]
  Activity against human GIPR (EC50 nM): 0.008 nM
Human glucagon receptor [13]
  Activity against human GCGR (EC50 nM): 1.33 nM

## H[Aib]QGTFTSDYSILLEK([AEEA-AEEA-γGlu-C20 diacid])KAA[Aib]EFVEWLLAGGPSSGAPPPS-NH2 [Compound No. 0156]
[12]
  Activity against human GIPR (EC50 nM): 0.019 nM
Human glucagon receptor [13]
  Activity against human GCGR (EC50 nM): 0.566 nM

## H[Aib]HGTFTSDYS[αMeK]YLEK([AEEA-AEEA-γGlu-C20 diacid])KAQQEFVEWLLAGGPSSGAPPPS-NH2 [Compound No. 0113]
[8]
  Activity against human GIPR (EC50 nM): 0.015 nM
Human glucagon receptor [9]
  Activity against human GCGR (EC50 nM): 5.91 nM
